Data taken from patent US20090118184A1 (UNIVERSITY OF ROCHESTER, published 2009).

How the values were obtained:
Experiment in all cases: cell-based or functional assay
[1] = target: T1, factor VIIIa A1/A3C1C2 dimer, Y1792F (human, UniProt P00451 20-391; P00451 1709-2351)
T1 sequence 1: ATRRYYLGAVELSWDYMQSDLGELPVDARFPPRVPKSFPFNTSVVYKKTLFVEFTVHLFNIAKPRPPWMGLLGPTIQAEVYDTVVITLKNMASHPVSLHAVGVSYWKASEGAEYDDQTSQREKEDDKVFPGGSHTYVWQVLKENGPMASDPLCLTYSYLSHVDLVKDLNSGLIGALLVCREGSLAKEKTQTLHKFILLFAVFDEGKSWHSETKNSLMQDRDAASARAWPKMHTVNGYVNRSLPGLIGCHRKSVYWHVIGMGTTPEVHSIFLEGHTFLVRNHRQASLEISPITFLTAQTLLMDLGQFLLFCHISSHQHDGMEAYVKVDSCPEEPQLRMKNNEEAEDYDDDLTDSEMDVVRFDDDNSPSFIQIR
T1 sequence 2: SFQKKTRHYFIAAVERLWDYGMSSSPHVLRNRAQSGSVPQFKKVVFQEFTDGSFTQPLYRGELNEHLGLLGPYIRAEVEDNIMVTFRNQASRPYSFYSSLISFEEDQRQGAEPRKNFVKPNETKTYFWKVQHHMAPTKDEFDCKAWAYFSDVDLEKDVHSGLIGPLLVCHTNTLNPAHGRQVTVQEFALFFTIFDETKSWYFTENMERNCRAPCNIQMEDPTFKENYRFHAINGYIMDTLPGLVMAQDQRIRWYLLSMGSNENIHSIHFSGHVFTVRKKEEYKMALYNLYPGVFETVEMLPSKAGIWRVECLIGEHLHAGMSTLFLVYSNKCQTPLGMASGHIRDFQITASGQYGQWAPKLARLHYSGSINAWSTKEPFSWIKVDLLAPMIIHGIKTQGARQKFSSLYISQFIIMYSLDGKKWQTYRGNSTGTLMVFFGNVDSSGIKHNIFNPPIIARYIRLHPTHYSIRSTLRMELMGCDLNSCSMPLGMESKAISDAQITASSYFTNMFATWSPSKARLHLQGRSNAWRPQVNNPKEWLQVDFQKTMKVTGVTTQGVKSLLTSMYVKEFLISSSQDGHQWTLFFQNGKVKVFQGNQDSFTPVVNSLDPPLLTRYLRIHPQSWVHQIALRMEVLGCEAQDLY

[2] = target: T2, factor VIIIa A1/A3C1C2 dimer, S1949A (human, UniProt P00451 20-391; P00451 1709-2351)
T2 sequence 1: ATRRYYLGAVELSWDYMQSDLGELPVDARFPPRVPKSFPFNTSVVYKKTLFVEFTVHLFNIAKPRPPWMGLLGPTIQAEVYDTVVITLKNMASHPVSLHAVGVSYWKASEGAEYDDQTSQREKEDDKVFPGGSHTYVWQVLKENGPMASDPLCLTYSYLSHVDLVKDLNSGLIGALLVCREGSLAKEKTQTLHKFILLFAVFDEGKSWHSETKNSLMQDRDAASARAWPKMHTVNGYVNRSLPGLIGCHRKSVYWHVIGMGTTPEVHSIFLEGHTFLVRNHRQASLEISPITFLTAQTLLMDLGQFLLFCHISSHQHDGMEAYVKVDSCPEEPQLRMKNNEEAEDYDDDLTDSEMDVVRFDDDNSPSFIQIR
T2 sequence 2: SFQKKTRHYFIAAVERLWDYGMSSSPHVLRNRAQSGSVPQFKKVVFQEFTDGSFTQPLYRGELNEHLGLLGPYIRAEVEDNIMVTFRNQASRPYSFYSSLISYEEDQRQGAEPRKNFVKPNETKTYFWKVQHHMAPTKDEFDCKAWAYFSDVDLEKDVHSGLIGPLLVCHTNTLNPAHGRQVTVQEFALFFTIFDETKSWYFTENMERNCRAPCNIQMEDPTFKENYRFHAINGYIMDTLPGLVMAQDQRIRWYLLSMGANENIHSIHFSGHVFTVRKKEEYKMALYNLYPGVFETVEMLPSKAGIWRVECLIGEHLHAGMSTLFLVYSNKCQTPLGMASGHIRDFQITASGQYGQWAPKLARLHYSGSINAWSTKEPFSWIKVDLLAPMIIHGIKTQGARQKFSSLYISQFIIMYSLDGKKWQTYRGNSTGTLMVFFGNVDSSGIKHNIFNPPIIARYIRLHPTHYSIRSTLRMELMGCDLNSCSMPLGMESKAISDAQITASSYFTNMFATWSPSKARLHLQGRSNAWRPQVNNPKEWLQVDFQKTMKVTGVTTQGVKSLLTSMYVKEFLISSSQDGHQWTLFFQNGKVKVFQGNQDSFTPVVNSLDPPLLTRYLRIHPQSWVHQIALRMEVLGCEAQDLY

[3] = target: T3, factor VIIIa A1/A3C1C2 dimer, D302A (human, UniProt P00451 20-391; P00451 1709-2351)
T3 chain 1: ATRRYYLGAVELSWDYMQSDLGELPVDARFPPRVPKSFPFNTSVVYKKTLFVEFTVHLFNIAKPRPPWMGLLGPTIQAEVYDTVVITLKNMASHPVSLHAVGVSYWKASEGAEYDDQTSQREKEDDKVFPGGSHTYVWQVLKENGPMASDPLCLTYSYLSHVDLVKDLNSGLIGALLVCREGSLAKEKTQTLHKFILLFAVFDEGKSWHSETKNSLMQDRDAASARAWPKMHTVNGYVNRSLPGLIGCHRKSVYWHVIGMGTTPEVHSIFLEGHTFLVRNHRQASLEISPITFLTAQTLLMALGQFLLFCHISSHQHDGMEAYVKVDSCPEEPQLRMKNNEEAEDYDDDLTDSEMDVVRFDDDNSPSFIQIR
T3 chain 2: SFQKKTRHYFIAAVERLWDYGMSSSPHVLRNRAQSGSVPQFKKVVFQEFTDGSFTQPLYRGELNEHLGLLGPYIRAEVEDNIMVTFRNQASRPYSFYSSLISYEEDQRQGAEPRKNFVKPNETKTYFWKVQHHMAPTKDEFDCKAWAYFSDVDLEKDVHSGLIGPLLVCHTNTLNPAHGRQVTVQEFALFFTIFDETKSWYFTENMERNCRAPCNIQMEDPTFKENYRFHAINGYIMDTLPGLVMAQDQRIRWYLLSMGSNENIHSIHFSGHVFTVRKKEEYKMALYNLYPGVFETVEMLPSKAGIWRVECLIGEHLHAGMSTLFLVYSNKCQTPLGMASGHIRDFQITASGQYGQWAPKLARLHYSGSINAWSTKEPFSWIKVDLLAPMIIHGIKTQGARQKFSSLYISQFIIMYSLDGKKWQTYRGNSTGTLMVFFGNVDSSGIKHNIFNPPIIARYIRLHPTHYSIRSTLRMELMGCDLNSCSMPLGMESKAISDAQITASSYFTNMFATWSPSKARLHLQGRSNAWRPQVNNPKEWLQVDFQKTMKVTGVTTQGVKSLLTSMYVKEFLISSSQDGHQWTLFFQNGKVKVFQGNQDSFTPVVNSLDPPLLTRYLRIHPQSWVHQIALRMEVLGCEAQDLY

Factor VIIIa decay rate relative to wild type, FIXa (+) [1]: 38.4 relative to wild type | Factor VIIIa decay rate relative to wild type, FIXa (-) [1]: 11.5 relative to wild type | Factor VIIIa decay rate, FIXa (+) [1]: 0.433 min⁻¹ | Factor VIIIa decay rate, FIXa (-) [1]: 0.724 min⁻¹ | Factor VIIIa decay rate relative to wild type, FIXa (+) [2]: 1.14 relative to wild type | Factor VIIIa decay rate, FIXa (+) [2]: 0.0129 min⁻¹ | Factor VIIIa decay rate relative to wild type, FIXa (+) [3]: 0.43 relative to wild type | Factor VIIIa decay rate, FIXa (+) [3]: 0.0049 min⁻¹
B1: factor VIIIa A2 subunit, wild type (other)
chain: SVAKKHPKTWVHYIAAEEEDWDYAPLVLAPDDRSYKSQYLNNGPQRIGRKYKKVRFMAYTDETFKTREAIQHESGILGPLLYGEVGDTLLIIFKNQASRPYNIYPHGITDVRPLYSRRLPKGVKHLKDFPILPGEIFKYKWTVTVEDGPTKSDPRCLTRYYSSFVNMERDLASGLIGPLLICYKESVDQRGNQIMSDKRNVILFSVFDENRSWYLTENIQRFLPNPAGVQLEDPEFQASNIMHSINGYVFDSLQLSVCLHEVAYWYILSIGAQTDFLSVFFSGYTFKHKMVYEDTLTLFPFSGETVFMSMENPGLWILGCHNSDFRNRGMTALLKVSSCDKNTGDYYEDSYEDISAYLLSKNNAIEPR
